One protein from PMC4671958, “Structure of the Helicase Domain of DNA Polymerase Theta Reveals a Possible Role in the Microhomology-Mediated End-Joining Pathway” (Structure(London, England:1993), 2015) can be followed below.

Series [1] concerns the molecule itself. The series is described as follows: SEC-MALS; Viscotek TDA 305 system, Shodex KW-803 silica column; in the absence of nucleotide. Background: In gel filtration, larger molecules generally elute earlier.
Series [2] deals with the molecule itself. Kind of series: AUC; sedimentation velocity, absorbance (280 nm) and interference optics; in the absence of nucleotide.

“And” between values parts separate entries of the source, which are not always exact repeats. Equal entries are not always repeated.

B1: DNA polymerase theta helicase domain (Polθ-HLD), residues 67–894 (domain or fragment, human, UniProt O75417 67-894, looked up)
chain: DKLLLANWGLPKAVLEKYHSFGVKKMFEWQAECLLLGQVLEGKNLVYSAPTSAGKTLVAELLILKRVLEMRKKALFILPFVSVAKEKKYYLQSLFQEVGIKVDGYMGSTSPSRHFSSLDIAVCTIERANGLINRLIEENKMDLLGMVVVDELHMLGDSHRGYLLELLLTKICYITRKSASCQADLASSLSNAVQIVGMSATLPNLELVASWLNAELYHTDFRPVPLLESVKVGNSIYDSSMKLVREFEPMLQVKGDEDHVVSLCYETICDNHSVLLFCPSKKWCEKLADIIAREFYNLHHQAEGLVKPSECPPVILEQKELLEVMDQLRRLPSGLDSVLQKTVPWGVAFHHAGLTFEERDIIEGAFRQGLIRVLAATSTLSSGVNLPARRVIIRTPIFGGRPLDILTYKQMVGRAGRKGVDTVGESILICKNSEKSKGIALLQGSLKPVRSCLQRREGEEVTGSMIRAILEIIVGGVASTSQDMHTYAACTFLAASMKEGKQGIQRNQESVQLGAIEACVMWLLENEFIQSTEASDGTEGKVYHPTHLGSATLSSSLSPADTLDIFADLQRAMKGFVLENDLHILYLVTPMFEDWTTIDWYRFFCLWEKLPTSMKRVAELVGVEEGFLARCVKGKVVARTERQHRQMAIHKRFFTSLVLLDLISEVPLREINQKYGCNRGQIQSLQQSAAVYAGMITVFSNRLGWHNMELLLSQFQKRLTFGIQRELCDLVRVSLLNAQRARVLYASGFHTVADLARANIVEVEVILKNAVPFKSARKAVDEEEEAVEERRNMRTIWVTGRKGLTEREAAALIVEEARMILQQDLVEM
notes: DNA polymerase theta (Polθ, POLQ gene), human, helicase domain, residues 67–894; printed monomer mass 93,080 Da; Tetramer in crystals (by crystallographic symmetry) and in solution; Further construct details may stand in the Supplemental Experimental Procedures; also called Polθ helicase domain; 67–894 construct
As to B1, the stoichiometry N (usually a count of units in the complex or per binding partner) in series [1] is around 4; in series [2], 4 and 3.2.
